In patent US20260191905A1 (MODERNATX, published 2026):
Numbering of substitutions follows the chain as printed. Blank lines part the entries; values can stand above or below the binder they belong to.

Legend:
[1] = molecular target: T1, human GPC3 recombinant protein (human, UniProt P51654 25-559); test: SPR (Biacore), summary table; Chi2 0.636; Profile 'Very good'
T1 construct: also called huGPC3; Human GPC3 protein

[2] = molecular target: T1, human GPC3 recombinant protein; test: SPR (Biacore) off-rate screen, periplasmic extract over human GPC3 on CM5; R0 107.0
Experimental: (§1) Human GPC3 protein in acetate buffer, pH 5.0, was immobilized in a sensor chip CM5 (GE Healthcare; Cat. Nr. BR-1005-30; Lot. Nr.10245232) and successful immobilization was confirmed by using a commercially available human GPC3 antibody (R&D cat. nr. MAB2119) and the anti-GPC3-VHH-Fc (both at 10 μg/mL). Periplasmic extracts from the MP were diluted in Biacore Buffer (0.01 M HEPES pH 7.4, 0.15 M NaCl, 3 mM EDTA, 0.05% P20) and injected over 2 minutes at 30 μL/min. 10 μl of 10 mM NaOH/1M NaCl were injected between samples and off-rates were measured over 5 minutes. Off-rate ([…]) were calculated using BIACORE software 1:1 interaction Langmuir binding model.

[3] = molecular target: T1, human GPC3 recombinant protein; test: SPR (Biacore), VHH-His over human GPC3 on CM5; fit 87.8 - 17.34 nM; Rmax 38.9 RU; Chi2 0.636
Experimental: (§2) Affinities of the 19 VHH-His tagged domains were then determined by BiaCore assay. Human GPC3 protein (Sino biological cat. nr. 10088-H08H-500) was immobilized on CM5 sensor chip (GE Healthcare) as antigen. Purified VHH-His tagged domains were diluted in BiaCore buffer (0.01 M HEPES pH 7.4, 0.15 M NaCl, 3 mM EDTA, 0.05% P20) to 500 nM and injected over 2 minutes at […] followed by a half dilution series to 7.8 nM. 10 μl of 10 mM NaOH/1M NaCl were injected between samples and then off-rate wash was 5 minutes.

[4] = molecular target: T1, human GPC3 recombinant protein; test: SPR (Biacore) off-rate screen, periplasmic extract over human GPC3 on CM5; R0 45.4
Experimental: as §1

[5] = molecular target: T1, human GPC3 recombinant protein; test: SPR (Biacore) off-rate screen, periplasmic extract over human GPC3 on CM5; R0 56.5
Experimental: as §1

[6] = molecular target: T1, human GPC3 recombinant protein; test: SPR (Biacore) off-rate screen, periplasmic extract over human GPC3 on CM5; R0 24.6
Experimental: as §1

[7] = molecular target: T1, human GPC3 recombinant protein; test: SPR (Biacore) off-rate screen, periplasmic extract over human GPC3 on CM5; R0 30.5
Experimental: as §1

[8] = molecular target: T1, human GPC3 recombinant protein; test: SPR (Biacore) off-rate screen, periplasmic extract over human GPC3 on CM5; R0 6.06; asterisk not explained on the sheet
Experimental: as §1

[9] = molecular target: T1, human GPC3 recombinant protein; test: SPR (Biacore) off-rate screen, periplasmic extract over human GPC3 on CM5; R0 41.0
Experimental: as §1

[10] = molecular target: T2, human GPC3 on HepG2 cells (human, UniProt P51654 25-554); test: FACS, phage-displayed clone on HepG2, well D3; same clone on A-431 (no GPC3): 1.16%
T2 construct: whole, on cells
T2 sequence (P51654 25-554 limits assumed): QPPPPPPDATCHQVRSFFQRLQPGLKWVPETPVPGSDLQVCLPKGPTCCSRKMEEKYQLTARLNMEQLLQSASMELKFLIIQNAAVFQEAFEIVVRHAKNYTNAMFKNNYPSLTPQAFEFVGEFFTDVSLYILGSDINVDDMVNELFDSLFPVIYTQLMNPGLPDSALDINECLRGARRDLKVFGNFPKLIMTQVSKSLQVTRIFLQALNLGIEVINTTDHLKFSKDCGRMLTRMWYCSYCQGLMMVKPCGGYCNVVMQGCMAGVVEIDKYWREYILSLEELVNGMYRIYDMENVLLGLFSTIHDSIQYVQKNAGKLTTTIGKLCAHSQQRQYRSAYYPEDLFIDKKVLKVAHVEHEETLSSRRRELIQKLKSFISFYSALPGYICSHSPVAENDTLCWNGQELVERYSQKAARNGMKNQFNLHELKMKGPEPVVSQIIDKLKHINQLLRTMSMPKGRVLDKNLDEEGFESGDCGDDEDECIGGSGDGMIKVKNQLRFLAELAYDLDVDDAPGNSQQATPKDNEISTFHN

[11] = molecular target: T2, human GPC3 on HepG2 cells; test: FACS, phage-displayed clone on HepG2, well D3; same clone on A-431 (no GPC3): 1102.21
[12] = molecular target: T2, human GPC3 on HepG2 cells; test: FACS, periplasmic extract 1:5 + anti-c-myc + GAM-APC on HepG2, well D3; same on A-431: 0.36%
[13] = molecular target: T1, human GPC3 recombinant protein; test: SPR (Biacore), summary table; Chi2 0.59; Profile 'Good'; FIG. 18 prints 5.24E-09
Experimental: as §2

[14] = molecular target: T2, human GPC3 on HepG2 cells; test: FACS, periplasmic extract 1:5 + anti-c-myc + GAM-APC on HepG2, well D3; same on A-431: 802.83
[15] = molecular target: T1, human GPC3 recombinant protein; test: SPR (Biacore) off-rate screen, periplasmic extract over human GPC3 on CM5; R0 47.2
Experimental: as §1

[16] = molecular target: T1, human GPC3 recombinant protein; test: SPR (Biacore), VHH-His over human GPC3 on CM5; fit 197.5 - 26.0 nM; Rmax 14.1 RU; Chi2 0.59
Experimental: as §2

[17] = molecular target: T2, human GPC3 on HepG2 cells; test: FACS, phage-displayed clone on HepG2, well C3; same clone on A-431 (no GPC3): 1.31%
[18] = molecular target: T2, human GPC3 on HepG2 cells; test: FACS, phage-displayed clone on HepG2, well C3; same clone on A-431 (no GPC3): 1100.37
[19] = molecular target: T2, human GPC3 on HepG2 cells; test: FACS, periplasmic extract 1:5 + anti-c-myc + GAM-APC on HepG2, well C3; same on A-431: 0.12%
[20] = molecular target: T1, human GPC3 recombinant protein; test: SPR (Biacore), summary table; Chi2 0.43; Profile 'Good'; FIG. 18 prints 6.64E-09
Experimental: as §2

[21] = molecular target: T2, human GPC3 on HepG2 cells; test: FACS, periplasmic extract 1:5 + anti-c-myc + GAM-APC on HepG2, well C3; same on A-431: 697.44
[22] = molecular target: T1, human GPC3 recombinant protein; test: SPR (Biacore) off-rate screen, periplasmic extract over human GPC3 on CM5; R0 31.6
Experimental: as §1

[23] = molecular target: T1, human GPC3 recombinant protein; test: SPR (Biacore), VHH-His over human GPC3 on CM5; fit 250 - 7.8 nM; Rmax 9.47 RU; Chi2 0.43
Experimental: as §2

[24] = molecular target: T2, human GPC3 on HepG2 cells; test: FACS, phage-displayed clone on HepG2, well A2; same clone on A-431 (no GPC3): 0.72%
[25] = molecular target: T2, human GPC3 on HepG2 cells; test: FACS, phage-displayed clone on HepG2, well A2; same clone on A-431 (no GPC3): 1042.47
[26] = molecular target: T2, human GPC3 on HepG2 cells; test: FACS, periplasmic extract 1:5 + anti-c-myc + GAM-APC on HepG2, well A2; same on A-431: 0.21%
[27] = molecular target: T2, human GPC3 on HepG2 cells; test: FACS, periplasmic extract 1:5 + anti-c-myc + GAM-APC on HepG2, well A2; same on A-431: 753.37
[28] = molecular target: T1, human GPC3 recombinant protein; test: SPR (Biacore) off-rate screen, periplasmic extract over human GPC3 on CM5; R0 71.6
Experimental: as §1

[29] = molecular target: T1, human GPC3 recombinant protein; test: SPR (Biacore), summary table; Chi2 0.365; Profile 'Medium'; FIG. 18 prints 3.82E-09
[30] = molecular target: T1, human GPC3 recombinant protein; test: SPR (Biacore), VHH-His over human GPC3 on CM5; fit 250 - 7.8 nM; Rmax 11.3 RU; Chi2 0.365
Experimental: as §2

T1 sequence (P51654 25-559 limits assumed): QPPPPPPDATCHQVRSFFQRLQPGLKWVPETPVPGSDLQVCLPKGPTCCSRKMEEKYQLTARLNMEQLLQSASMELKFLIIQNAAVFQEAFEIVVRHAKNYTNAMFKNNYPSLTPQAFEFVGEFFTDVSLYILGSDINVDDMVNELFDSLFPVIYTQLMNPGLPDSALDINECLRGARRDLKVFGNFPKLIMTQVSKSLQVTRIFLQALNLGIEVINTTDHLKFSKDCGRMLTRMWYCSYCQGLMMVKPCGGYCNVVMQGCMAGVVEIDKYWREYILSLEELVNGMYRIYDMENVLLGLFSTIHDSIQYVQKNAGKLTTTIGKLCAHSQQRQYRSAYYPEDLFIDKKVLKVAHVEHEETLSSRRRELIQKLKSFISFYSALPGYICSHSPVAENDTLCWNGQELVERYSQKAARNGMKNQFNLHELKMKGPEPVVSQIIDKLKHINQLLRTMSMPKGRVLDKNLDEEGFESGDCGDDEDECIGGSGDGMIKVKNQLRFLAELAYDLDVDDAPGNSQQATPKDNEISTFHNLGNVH

B2: VH20 (VHH)
VHH: EVQLVESGGGLVQPGGSLRLSCAASGFTFSSYAMSWVRQAPGKEPEWISSISGSGSSTYYADSLKGRFTISRDNSKNTLYLQMNSLRAEDTAVYYCSKDPRFGEPPFDYWGQGTTVTVSS
notes: also called VHH20
koff [4]: 0.00249 s⁻¹

B3: VH22 (VHH)
VHH: B2 VHH with I48V, S54G, N84D, K98R, T115L
notes: also called VHH22
koff [5]: 0.00282 s⁻¹

B4: VH24 (VHH)
VHH: B2 VHH with I48V, S54G, S56T, K65E, T115L
notes: also called VHH24
koff [6]: 0.00367 s⁻¹

B5: VH25 (VHH)
VHH: B2 VHH with P45S, I48V, T115L
notes: also called VHH25
koff [7]: 0.00378 s⁻¹

B6: VH30 (VHH)
VHH: B2 VHH with E1Q, T28I, I48V, S54G, K65E, G103F, T115L
notes: also called VHH30
koff [8]: 0.00983 s⁻¹

B7: VH34 (VHH)
VHH: B2 VHH with E1Q, Q13R, I48V, S54G, K98R, T115L
notes: also called VHH34
koff [9]: 0.00507 s⁻¹

The next lines start with the values.

Kd [1]: 2.73 nM
koff [2]: 0.00184 s⁻¹
Ka [3]: 3.66e+08 M⁻¹
Kd [3]: 2.73 nM
koff [3]: 0.000967 s⁻¹
kon [3]: 354000 M⁻¹ s⁻¹
B1: anti-GPC3 VHH-His tagged domain VHH2 (VHH)
VHH: QVQLVESGGGLVQPGGSLRLSCAASGFTFSNYLMHWVRQAPGKGLEWLSNINSDGSSTYYADSVKGRFTISRDNSKNTLYLQMNSLRAEDTAVYYCTVGAFDYWGQVTTGTVSS
notes: Produced from a mammalian expression vector as a His fusion; not shown: His tag

% of Binding [10]: 74.3%
Mean FL2-A [11]: 57900
% of Binding [12]: 0.5%
Kd [13]: 3.68 nM
Mean FL4-A [14]: 812
koff [15]: 0.00366 s⁻¹
Ka [16]: 1.91e+08 M⁻¹
Kd [16]: 5.24 nM
koff [16]: 0.00253 s⁻¹
kon [16]: 484000 M⁻¹ s⁻¹
B8: anti-GPC3 VHH-His tagged domain VHH5 (VHH)
VHH: B2 VHH with I48V, S54G, T58A, K98R
notes: as for B1

% of Binding [17]: 68.7%
Mean FL2-A [18]: 43500
% of Binding [19]: 0.64%
Kd [20]: 4.34 nM
Mean FL4-A [21]: 915
koff [22]: 0.00221 s⁻¹
Ka [23]: 1.51e+08 M⁻¹
Kd [23]: 6.64 nM
koff [23]: 0.00197 s⁻¹
kon [23]: 296000 M⁻¹ s⁻¹
B9: anti-GPC3 VHH-His tagged domain VHH6 (VHH)
VHH: B2 VHH with E1Q, T28I, I48V, S54G, K65E
notes: as for B1

% of Binding [24]: 61.4%
Mean FL2-A [25]: 26600
% of Binding [26]: 0.3%
Mean FL4-A [27]: 752
koff [28]: 0.00607 s⁻¹
Kd [29]: 3.57 nM
Ka [30]: 2.62e+08 M⁻¹
Kd [30]: 3.82 nM
koff [30]: 0.00538 s⁻¹
kon [30]: 1.41e+06 M⁻¹ s⁻¹
B10: anti-GPC3 VHH-His tagged domain VHH13 (VHH)
VHH: B2 VHH with I48V, S54G, S56G, S85R, S97A, K98R, R101M, P105R, T115L
notes: as for B1
